Source: paper PMC2700308

Molecular target: gp120 prebound to sCD4 (HIV-1, subtype B, strain YU2 | human) (UniProt P35961)
Experiment: ITC

S22 peptide, 22 amino acid tyrosine-sulfated peptide corresponding to the CCR5 N-terminus (from UniProt P51681 1-22)
Kd: 2.2 µM
